The text below walks through data of article doi:10.1101/2024.10.11.617762.

The data set addresses SARS-CoV-2 nucleocapsid C-terminal domain (N-CTD) (SARS-CoV-2, UniProt P0DTC9 247-364). As to the kind of experiment: fluorescence intensity.

UCUCUAAACG (ssRNA) [FAM-labelled 10-mer TRS RNA probe]: the binding result is “binds”.
